Data as given in publication doi:10.1101/2022.05.23.492800 (2022).

Tests used:
Assay in all cases: multimer staining
[1] = molecular target: T1, SARS-CoV-1 Spike protein peptide on HLA-A*24:02 (human)
T1 peptide: QYIKWPWYVW

[2] = molecular target: T2, SARS-CoV-2 Spike protein peptide on HLA-A*23:01 (human)
T2 peptide: QYIKWPWYIW

[3] = molecular target: T3, SARS-CoV-2 Spike protein peptide on HLA-A*24:02 (human)
T3 peptide: QYIKWPWYIW

Measured: binding result

B1: TCRQYI (TCR)
alpha TRAV20*01 TRAJ32*01 CDR3: CAALNYGGATNKLIF
beta TRBV4-3*01 TRBJ2-7*01 CDR3: CASSPSGGAYEQYF
recognises: all assays above
